assay: yeast display, Sf9 membrane polyspecificity reagent, FACS + sequencing; frameworks hold sequencing errors
Summary of the method: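 Galactose-induced (36–48 hours) yeast carrying a synthetic nanobody display library were exposed to 10% biotinylated, detergent-solubilized Sf9 membrane reagent at 4 °C for 1 hour. FACS followed streptavidin microbead enrichment, using low and high (top ~1%) gates for expression (anti-HA) and reagent binding (streptavidin). Colony PCR, MiSeq 2 × 250 sequencing and CDR-length filtering followed. Labels for polyreactivity reflect the gate of origin.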

| Sequence | polyreactivity (PSR sort gate) |
| --- | --- |
| QVHLVESGGGLVQAGGSLRLSCAASGRTFYGNAMGWYRQATGKERELVAAINRDGGTYYADSVKGRFTISRDNAKNTVYLQMNSLKTEDTAVYYCNAVKRGIRYGYWGQGTQVTVSS | high polyreactivity |
| QVHLVESGGGLVQAGGSLRLSCAASGRTFYSYAMGWYRQAHGKERELVAAINTSGGRKHYADSVKGRFTISRDNAKNTVYLQMNSLKPEDTAVYYCAARYLGGRLSGDYSRYYWGQGTQVTVSS | high polyreactivity |
| QVHLVESGGGLVQAGGSLRLSCAASGRTFYVYAMGWYIQAPGKERELVATITSRGGRTYYADSVKGRFTISRDNAKNTVYLQMNSLKPEDTAVYYCNAAWWKVSYVRQKYYYWGQGTQVTVSS | high polyreactivity |
| QVHLVESGGGLVQAGGSLRLSCAASGRTIVGYDMGWYRQAPGKEMELVAAISSRGGSTYYADSVKGRFTISRDNAKNTVYLQRNSLKPEDTAVYYCAALWYVGYGPVDYWGQGTQVTVSS | high polyreactivity |
| QVHLVESGGGLVQAGGSLRLSCAASGRTLGGYAMGWYRQAPGKERELVAVITWNGGSTYADSVKGRFTISRDNAKNTVYLQRNSLKPEDTAVYYCAVYIPRGGRSGYWGQGTQVTVSS | high polyreactivity |
| QVHLVESGGGLVQAGGSLRLSCAASGRTLYCYAMGWYRQAPGKERELVASIRSGGSTNYADSVKGRFTISRDNAKNTVYLQMNSLKPEVTAVYYCNTGSRLDRVDSWGQGTQVTVSS | low polyreactivity |
| QVHLVESGGGLVQAGGSLRLSCAASGRTYGVNAMGRYRQAPGKEREFVAAISKRGGSTYYADSVKGRFTISRDNAKNTVYLQMNSLKPEDTAGYYCAADYTTHYWGQGTQVTVSS | high polyreactivity |
| QVHLVESGGGLVQAGGSLRLSCAASGSIFAINAMGWYRQAPGKERELVARISWSGGRTYYADSVKGRFTISRDNAKNTVYLQMNSLKPEDTAVYYCAKRYYKSLNRDEFDSWGQGTQVTVSS | high polyreactivity |
| QVHLVESGGGLVQAGGSLRLSCAASGSIFAWYGMGWYRQAPGKERELVAAISTAGSTNYADSVKGRFTISRDNAKNTVYLQMNSLKPEDTAVYYCAADWGGLWFWYEYWGQCTQVTVSS | low polyreactivity |
| QVHLVESGGGLVQAGGSLRLSCAASGSIFDEYAMGWYRQAPGKERELVAAITSGGSTNYADSVKGRFTISRDNAKNTVYLQMNSLKPEDTAVYYCNVARQAKGMGYWGQGTEVTVSS | low polyreactivity |
| QVHLVESGGGLVQAGGSLRLSCAASGSIFEINAMGWYRQAPGKEWELVAAITGSGGSTHYADSVKGRFTISRDNAKNTVYLPMNSLNPEDTAVYYCAAVPRYQYGYWGQGTQVTVSS | low polyreactivity |
| QVHLVESGGGLVQAGGSLRLSCAASGSIFNENAMGWYRQAPGKERELVATISRRGGSTYYADSVKGRFTISRDNAKNTVYLQMNSLKPEDTAVYYCARDIFWVVYWGQGTQVTVSS | high polyreactivity |
| QVHLVESGGGLVQAGGSLRLSCAASGSIFRKYAMGWYRQAPGKERELLAAISVSGGSTYYADSVKGRFTISRDNAKNTVYLQMNSLNPEDTAVYYCAADSGPFNRYAPRGYWGQGTQVTVSS | low polyreactivity |
| QVHLVESGGGLVQAGGSLRLSCAASGSIFSYYAMGWYRQAPGKERELVASITYSGGSTYYADSVKGRFTISRDNAKNTVYLQMNSLKPEDTAVYYCNTDWRTSVGYDYWGQGTQVTVSS | low polyreactivity |
| QVHLVESGGGLVQAGGSLRLSCAASGSIFTSYAMGWYRQAPGKERELVAAITSGGSTNYADSVKGRFTISRDNAKNTVFLKMNSLKPEDTAVDYCAKDRPGQLRWWFLYGYWGQGTQVTVSS | low polyreactivity |
| QVHLVESGGGLVQAGGSLRLSCAASGSIFYDYAMVWYIQAPGKERELVAAINSGDSTYYADSVKGRFTISRDNAKNTVYLQMNSLKPEDTAVYFCAATYFSPYIEYDYWGQGTQVTVSS | low polyreactivity |
| QVHLVESGGGLVQAGGSLRLSCAASGSIYPYTMGWYRQAPGKERELVAGITRSGGRTYYADSVKGRFTISRDNAKNTVYLQMNSLKPEDTAVYYCAAGTTAWYWSEYYYWGQGTQVTVSS | high polyreactivity |
| QVHLVESGGGLVQAGGSLRLSCAASGSNFDINAMGWYRQAPGKERELVAVITDSGSTYYADSVKGRFTISRDNAKNTVYLQMNRLKPEDTAVYYSAADQVVAGLLTPEYDYWGQGTQVTVSS | low polyreactivity |
| QVHLVESGGGLVQAGGSLRLSCAASGSNFYWNAMGWYRQAPGKESELFAAISSGGRTYYADSLKGRFTISRDNAKNTVYLQLNSLKREDTAFYYCNAAGWIFPSFSPMDYWGQGTQVTVSS | low polyreactivity |
| QVHLVESGGGLVQAGGSLRLSCAASGSTFDDNTMGWYRQAPGKERELVAAISSDSSTNYADSVKGRFTISRDNAKNTVYLQMNSLKPEDTAVYSCATRSRTTKIVRWPGMYYWGQGTQVTVSS | high polyreactivity |
| QVHLVESGGGLVQAGGSLRLSCAASGSTFGLNAMGWYRQAPGKERELVAAITRSDITNYADSVKGRFTISRDNAKNTVYLQMNSLKPEDTAVYYCNKTPDRHRRYFGYGYWGQGTQVTVSS | low polyreactivity |
| QVHLVESGGGLVQAGGSLRLSCAASGSTFGYYAMGWYRQAPGKERELVAAIRYSGGTTYYADSVKGRFTISRDNAKNTVYLQMNSLKPEDTAVYYCAAVYTSGYYYWGQGTQVTVSS | high polyreactivity |

| Sequence | polyreactivity (PSR sort gate) |
| --- | --- |
| QVHLVESGGGLVQAGGSLRLSCAASGSTFHKYALGWYRQAPGKEREYVAAISWSGGSTYYADSVKGRFTISRDNAKYTVYLQMNSLKPEDTAVYFCAARGNRYAYPRKYDYWGQGTQVTVSS | high polyreactivity |
| QVHLVESGGGLVQAGGSLRLSCAASGSTFIYYGMGWYRHAPGKERELVATISSGGSTNYADSVKGRFTISRDNAKNTVYLQMNSLKPEDTAVYYCAVAPYYYGLLWNTFYEYYYWGQGTQVTVSS | high polyreactivity |
| QVHLVESGGGLVQAGGSLRLSCAASGSTFPYYAMGWYRQAPGKEREWVAAITSSASTYFADSVKGRFTISRDNAKNTVYLQMNSLKPEDTAVYYCAVRSPYRLSSWRVGYWGQGTQVTVSS | high polyreactivity |
| QVHLVESGGGLVQAGGSLRLSCAASGSTFRGYGMGWYRQAPGKERELVAAISWRAASTYYADSVKGRFTISRDNAKNTVYLQMNSLKPEDTAVYYCAARYSFSSSTRYYYWGQGTQVTVSS | high polyreactivity |
| QVHLVESGGGLVQAGGSLRLSCAASGSTFRLYALGWYRQAPGKERELVAVISRSGGRTYADSVKGRFTISRDNAKNTVYLQMNSLKPVDTAVYYCAKARHKSPTYTHDSWGQGTQVTVSS | high polyreactivity |
| QVHLVESGGGLVQAGGSLRLSCAASGSTFRRNAMGWYRQAPGKERELVASITSGGSTYYADSVKGRFTITRDNAKNTVYLQMNSLKPEDTGVYYCAVVWRGGYRWPYEYWGQGTQVTVSS | low polyreactivity |
| QVHLVESGGGLVQAGGSLRLSCAASGSTFSWYDMGWYRQAPGKERELVAAISTTGSTYYADSVKGRFTISRDNAKNTVYLQMNSLKPEDTAVYYCAADYISIAWYRLFYDYDYWGQGTQVTVSS | high polyreactivity |
| QVHLVESGGGLVQAGGSLRLSCAASGSTFTLNAMGWYRQAPGKERELVAAITWDGGSTYYADSVKGRFTISRDNAKNTVYLQMNSLKPEDTAVYFCAADREFWWEVVYTYEYYYWGQGTQVTVSS | low polyreactivity |
| QVHLVESGGGLVQAGGSLRLSCAASGSTFYANLMGWYRQAPGKESELVAAIDGSGGRTYYADSVKGRFTISRDNAKNTVYLQMNSLKPEDTAVYYCAKKRIVPVIQFGRDYNYWGQGTQVTVSS | high polyreactivity |
| QVHLVESGGGLVQAGGSLRLSCAASGSTFYRYAMGWYSQAPGKERELVAAISKRGGSTYYADSVKGRFTISRDNAKNTVYLQMNSLKPEDTAGQYCAADPFDYGGGDDYWGQGTQVTVSS | high polyreactivity |
| QVHLVESGGGLVQAGGSLRLSCAASGSTIRRYAMGWYRQAPGTERELVASITNRGGSTYYADSVKGLFTISRDNAKNTFYLQMNSLKPEDTAVYYCAKKGVYGPLNEYWGQGTQVTVSS | high polyreactivity |
| QVHLVESGGGLVQAGGSLRLSCAASGSTLYWYAMGWYRQAPGKERELVARITVSGGSTSYADSVKGRFTISRDNAKNTVYLQMNSLKPEDTAVYYCAARRYWTGYYYWGQGTQVTVSS | high polyreactivity |
| QVHLVESGGGLVQAGGSLRLSCAASGSTSRKYTMGWYRQAPGKERELVATISWSGGSTNYADSVKGRFTISRDNAKNTVYLQMNSLKPEETAVYYCKAYVSPRYRGSRYYYWGQGTQVTVSS | high polyreactivity |
| QVHLVESGGGLVQAGGSLRLSCAASGSTVTLYAMGWYRQAPGKERELVASITWSGSTYADSVKGRFTISRDNAKNTVYLQMNSLKPEDTAVYYCNTDPRSVVGWYDYWGQGTQVTVSS | low polyreactivity |
| QVHLVESGGGLVQAGGSLRLSCAASGTIYYVYSMVWYRQAPGKERELVASINKSGGSTYYADSVKWRFTISRDNAKNTVYLQMNSLKREDTAVYYCAARTGWPRVGFQYPAHVGFDYWGQGTQVTVSS | low polyreactivity |
| QVHLVESGGGLVQAGGSLRLSCAASGYVMGWYRQAPGKERELVAAITRGTSTYYADSVKGRFTISRDNAKNTVYLQMNSLKPEDTAVYYCAARTTSGEWPPGNIGTYLYDYWGQGTQVTVSS | low polyreactivity |
| QVHLVESGGGLVQAGGSLRLSCAAYGRIFTLNAMGWDRQAPGKERGWVARISRTGGSTYYADSVKGRFTISRDNAKNTVYLQMNSLKPEDTAVYYCAAAGFSRQPGAGAYYYWGQCTQVTVSS | high polyreactivity |
| QVHLVESGGGLVQAGGSLRLSCADCGFTLYGNAMGWYRQAPGKVRELVAAITKSGGRTYYADSVKGRFTISRDNAKNTVYLQMNSLKPEDTAVYYCAVRAKSRYDYWGQGTQVTVSS | high polyreactivity |
| QVHLVESGGGLVQAGGSLRLSCADSGFTFRRYTMGWYRQAPGKERELVAVISASGGSTYYADSVKGRFTISRDNAKNTVYLQMNSLKPEDTAVYYCNTRAVVIGGDYWGQGTQVTVSS | high polyreactivity |
| QVHLVESGGGLVQAGGSLRLSCADSGSIFRYYAMGWYRQAPGKEREMFARISWSGVSTYYADSVKGRFTISRDNAKNTVYLQMNSLKTEDTADYYCAGVDFRGYRYDLDYWGQGTQVTVSS | high polyreactivity |
| QVHLVESGGGLVQAGGSLRLSCAPSGNIFFSNAMGWYRQAPGKERELVASISQSGGSTYYADSLKGRFTISRDNAKNTVYFQMNSLKPEDTAVYYCNAFSITFYDFNSWGQGTQVTVSS | low polyreactivity |
